Consider ten molecules from patent US6482925.

Where two headings read alike, the source gives them in different places. Where only a bound is given, the exact number is not on record here.

Experiment [1] addresses MHC class II molecules on Daudi B cells. Kind of experiment: 51Cr Daudi cell adhesion; wild-type expression titrated by DNA quantity.
The target is the same in experiment [2]. Kind of experiment: 51Cr Daudi cell adhesion to transfected Cos-7 cells; cpm relative to wild-type, background not subtracted.
Experiment [3] shares this target. Kind of experiment: 51Cr Daudi cell adhesion to transfected Cos-7 cells.
Experiment [4] shares this target. The experiment is described as above. This is another data set of the same source.

“LAG-3 deletion mutant (54/66), deletion of the tip of the external loop (from UniProt P18627 23-492) (receptor)”: the reduction of bound cpm against wild-type LAG-3 at comparable expression in experiment [1] amounted to 40%. This molecule gave an Adhesion (relative to wild-type LAG-3) in experiment [2] of 0.08.
For “LAG-3 deletion mutant (D2), deletion of domain D2 (from UniProt P18627 23-492) (receptor)”, in that order: 40% and 0.11.

B1: LAG-3 mutant R76E (receptor)
chain: LQPGAEVPVVWAQEGAPAQLPCSPTIPLQDLSLLRRAGVTWQHQPDSGPPAAAPGHPLAPGPHPAAPSSWGPRPREYTVLSVGPGGLRSGRLPLQPRVQLDERGRQRGDFSLWLRPARRADAGEYRAAVHLRDRALSCRLRLRLGQASMTASPPGSLRASDWVILNCSFSRPDRPASVHWFRNRGQGRVPVRESPHHHLAESFLFLPQVSPMDSGPWGCILTYRDGFNVSIMYNLTVLGLEPPTPLTVYAGAGSRVGLPCRLPAGVGTRSFLTAKWTPPGGGPDLLVTGDNGDFTLRLEDVSQAQAGTYTCHIHLQEQQLNATVTLAIITVTPKSFGSPGSLGKLLCEVTPVSGQERFVWSSLDTPSQRSFSGPWLEAQEAQLLSQPWQCQLYQGERLLGAAVYFTELSSPGAQRSGRAPGALPAGHLLLFLTLGVLSLLLLVTGAFGFHLWRRQWRPRRFSALEQGIHPRRLRAR
Regarding B1, the fold increase of binding against wild-type LAG-3 in experiment [3] is > 3 fold. Also, the Adhesion (relative to wild-type LAG-3) in experiment [2] is 2.95.

B2: LAG-3 mutant R75A (receptor)
chain: LQPGAEVPVVWAQEGAPAQLPCSPTIPLQDLSLLRRAGVTWQHQPDSGPPAAAPGHPLAPGPHPAAPSSWGPRPARYTVLSVGPGGLRSGRLPLQPRVQLDERGRQRGDFSLWLRPARRADAGEYRAAVHLRDRALSCRLRLRLGQASMTASPPGSLRASDWVILNCSFSRPDRPASVHWFRNRGQGRVPVRESPHHHLAESFLFLPQVSPMDSGPWGCILTYRDGFNVSIMYNLTVLGLEPPTPLTVYAGAGSRVGLPCRLPAGVGTRSFLTAKWTPPGGGPDLLVTGDNGDFTLRLEDVSQAQAGTYTCHIHLQEQQLNATVTLAIITVTPKSFGSPGSLGKLLCEVTPVSGQERFVWSSLDTPSQRSFSGPWLEAQEAQLLSQPWQCQLYQGERLLGAAVYFTELSSPGAQRSGRAPGALPAGHLLLFLTLGVLSLLLLVTGAFGFHLWRRQWRPRRFSALEQGIHPRRLRAR
Turning to B2, the fold increase of binding against wild-type LAG-3 in experiment [3] was > 3 fold. The molecule further gave an Adhesion (relative to wild-type LAG-3) in experiment [2] of 4.2.

B3: LAG-3 mutant R115A (receptor)
chain: LQPGAEVPVVWAQEGAPAQLPCSPTIPLQDLSLLRRAGVTWQHQPDSGPPAAAPGHPLAPGPHPAAPSSWGPRPRRYTVLSVGPGGLRSGRLPLQPRVQLDERGRQRGDFSLWLAPARRADAGEYRAAVHLRDRALSCRLRLRLGQASMTASPPGSLRASDWVILNCSFSRPDRPASVHWFRNRGQGRVPVRESPHHHLAESFLFLPQVSPMDSGPWGCILTYRDGFNVSIMYNLTVLGLEPPTPLTVYAGAGSRVGLPCRLPAGVGTRSFLTAKWTPPGGGPDLLVTGDNGDFTLRLEDVSQAQAGTYTCHIHLQEQQLNATVTLAIITVTPKSFGSPGSLGKLLCEVTPVSGQERFVWSSLDTPSQRSFSGPWLEAQEAQLLSQPWQCQLYQGERLLGAAVYFTELSSPGAQRSGRAPGALPAGHLLLFLTLGVLSLLLLVTGAFGFHLWRRQWRPRRFSALEQGIHPRRLRAR
For B3, the reduction of bound cpm against wild-type LAG-3 at comparable expression in experiment [1] was 40%. This molecule returned an Adhesion (relative to wild-type LAG-3) in experiment [2] of 0.23.

B4: LAG-3 mutant R73E (receptor)
chain: LQPGAEVPVVWAQEGAPAQLPCSPTIPLQDLSLLRRAGVTWQHQPDSGPPAAAPGHPLAPGPHPAAPSSWGPEPRRYTVLSVGPGGLRSGRLPLQPRVQLDERGRQRGDFSLWLRPARRADAGEYRAAVHLRDRALSCRLRLRLGQASMTASPPGSLRASDWVILNCSFSRPDRPASVHWFRNRGQGRVPVRESPHHHLAESFLFLPQVSPMDSGPWGCILTYRDGFNVSIMYNLTVLGLEPPTPLTVYAGAGSRVGLPCRLPAGVGTRSFLTAKWTPPGGGPDLLVTGDNGDFTLRLEDVSQAQAGTYTCHIHLQEQQLNATVTLAIITVTPKSFGSPGSLGKLLCEVTPVSGQERFVWSSLDTPSQRSFSGPWLEAQEAQLLSQPWQCQLYQGERLLGAAVYFTELSSPGAQRSGRAPGALPAGHLLLFLTLGVLSLLLLVTGAFGFHLWRRQWRPRRFSALEQGIHPRRLRAR
In the case of B4, the fold increase of binding against wild-type LAG-3 in experiment [3] is > 3 fold. The molecule also gave an Adhesion (relative to wild-type LAG-3) in experiment [2] of 3.25.

B5: LAG-3 mutant D30A (receptor)
chain: LQPGAEVPVVWAQEGAPAQLPCSPTIPLQALSLLRRAGVTWQHQPDSGPPAAAPGHPLAPGPHPAAPSSWGPRPRRYTVLSVGPGGLRSGRLPLQPRVQLDERGRQRGDFSLWLRPARRADAGEYRAAVHLRDRALSCRLRLRLGQASMTASPPGSLRASDWVILNCSFSRPDRPASVHWFRNRGQGRVPVRESPHHHLAESFLFLPQVSPMDSGPWGCILTYRDGFNVSIMYNLTVLGLEPPTPLTVYAGAGSRVGLPCRLPAGVGTRSFLTAKWTPPGGGPDLLVTGDNGDFTLRLEDVSQAQAGTYTCHIHLQEQQLNATVTLAIITVTPKSFGSPGSLGKLLCEVTPVSGQERFVWSSLDTPSQRSFSGPWLEAQEAQLLSQPWQCQLYQGERLLGAAVYFTELSSPGAQRSGRAPGALPAGHLLLFLTLGVLSLLLLVTGAFGFHLWRRQWRPRRFSALEQGIHPRRLRAR
B5 registered a fold reduction of binding against wild-type LAG-3 in experiment [3] of 2 fold. The same molecule came in with a reduction of bound cpm against wild-type LAG-3 at comparable expression in experiment [1] of 40%. The Adhesion (relative to wild-type LAG-3) in experiment [2] was determined as 0.41.

B6: LAG-3 mutant H56A (receptor)
chain: LQPGAEVPVVWAQEGAPAQLPCSPTIPLQDLSLLRRAGVTWQHQPDSGPPAAAPGAPLAPGPHPAAPSSWGPRPRRYTVLSVGPGGLRSGRLPLQPRVQLDERGRQRGDFSLWLRPARRADAGEYRAAVHLRDRALSCRLRLRLGQASMTASPPGSLRASDWVILNCSFSRPDRPASVHWFRNRGQGRVPVRESPHHHLAESFLFLPQVSPMDSGPWGCILTYRDGFNVSIMYNLTVLGLEPPTPLTVYAGAGSRVGLPCRLPAGVGTRSFLTAKWTPPGGGPDLLVTGDNGDFTLRLEDVSQAQAGTYTCHIHLQEQQLNATVTLAIITVTPKSFGSPGSLGKLLCEVTPVSGQERFVWSSLDTPSQRSFSGPWLEAQEAQLLSQPWQCQLYQGERLLGAAVYFTELSSPGAQRSGRAPGALPAGHLLLFLTLGVLSLLLLVTGAFGFHLWRRQWRPRRFSALEQGIHPRRLRAR
For the molecule B6, the values for the fold reduction of binding against wild-type LAG-3 in experiment [3] and in experiment [4] were 2 fold and > 2 fold, respectively. This molecule also yielded a reduction of bound cpm against wild-type LAG-3 at comparable expression in experiment [1] of 40%. This molecule came in with an Adhesion (relative to wild-type LAG-3) in experiment [2] of 0.45.

B7: LAG-3 mutant Y77F (receptor)
chain: LQPGAEVPVVWAQEGAPAQLPCSPTIPLQDLSLLRRAGVTWQHQPDSGPPAAAPGHPLAPGPHPAAPSSWGPRPRRFTVLSVGPGGLRSGRLPLQPRVQLDERGRQRGDFSLWLRPARRADAGEYRAAVHLRDRALSCRLRLRLGQASMTASPPGSLRASDWVILNCSFSRPDRPASVHWFRNRGQGRVPVRESPHHHLAESFLFLPQVSPMDSGPWGCILTYRDGFNVSIMYNLTVLGLEPPTPLTVYAGAGSRVGLPCRLPAGVGTRSFLTAKWTPPGGGPDLLVTGDNGDFTLRLEDVSQAQAGTYTCHIHLQEQQLNATVTLAIITVTPKSFGSPGSLGKLLCEVTPVSGQERFVWSSLDTPSQRSFSGPWLEAQEAQLLSQPWQCQLYQGERLLGAAVYFTELSSPGAQRSGRAPGALPAGHLLLFLTLGVLSLLLLVTGAFGFHLWRRQWRPRRFSALEQGIHPRRLRAR
With B7, the reduction of bound cpm against wild-type LAG-3 at comparable expression in experiment [1] is 40%. The same molecule had an Adhesion (relative to wild-type LAG-3) in experiment [2] of 0.05.

B8: LAG-3 mutant R103A (receptor)
chain: LQPGAEVPVVWAQEGAPAQLPCSPTIPLQDLSLLRRAGVTWQHQPDSGPPAAAPGHPLAPGPHPAAPSSWGPRPRRYTVLSVGPGGLRSGRLPLQPRVQLDEAGRQRGDFSLWLRPARRADAGEYRAAVHLRDRALSCRLRLRLGQASMTASPPGSLRASDWVILNCSFSRPDRPASVHWFRNRGQGRVPVRESPHHHLAESFLFLPQVSPMDSGPWGCILTYRDGFNVSIMYNLTVLGLEPPTPLTVYAGAGSRVGLPCRLPAGVGTRSFLTAKWTPPGGGPDLLVTGDNGDFTLRLEDVSQAQAGTYTCHIHLQEQQLNATVTLAIITVTPKSFGSPGSLGKLLCEVTPVSGQERFVWSSLDTPSQRSFSGPWLEAQEAQLLSQPWQCQLYQGERLLGAAVYFTELSSPGAQRSGRAPGALPAGHLLLFLTLGVLSLLLLVTGAFGFHLWRRQWRPRRFSALEQGIHPRRLRAR
In the case of B8, in experiment [3], the fold reduction of binding against wild-type LAG-3 was determined as 2 fold. The Adhesion (relative to wild-type LAG-3) in experiment [2] is 0.49.
